pEC50, pKd: −log10 of the molar value.

This is an account of results in patent US20210253733A1.

Assay [1] addresses purified recombinant human CD163 protein used for SPR (human) (UniProt Q86VB7). The assay is described as follows: SPR (Biacore T200), CD163 amine-coupled to chip, antibody as analyte, EDTA buffer. For orientation: SPR reads the build-up and loss of mass on a sensor chip optically.
The target is the same in assay [2]. The assay is described as follows: SPR (Biacore T200), CD163 amine-coupled to chip, antibody as analyte, calcium-containing buffer.
In assay [3] the target is His-tagged recombinant human CD163 (R&D Systems, No. 1607-CD-050) (human) (UniProt Q86VB7). The assay is described as follows: ELISA, plate coated with 5 ug/mL His-tagged recombinant human CD163, HRP anti-mouse IgG F(ab')2, A450. A general note: An ELISA detects its analyte on a solid surface through an enzyme-linked reagent.
Assay [4] concerns the target human CD163 expressed on human myeloid cells (M2c macrophages, M2 macrophages, in vitro MDSCs) (human) (UniProt Q86VB7). The assay is described as follows: flow cytometry, unconjugated anti-CD163 (MAB1607) with labelled secondary antibody on untreated M2c macrophages.
The target in assay [5] is human CD163 ECD with a C-terminal 8 histidine tag (HEK293-6E) (human) (UniProt Q86VB7). As to the kind of experiment: binding titration on recombinant huCD163 ECD.
For assay [6], the target named is truncated human CD163 ECD SRCR domain 1-5 fragment with C-terminus histidine tag (HEK293-6E) (human) (UniProt Q86VB7). The assay is described as follows: binding titration on truncated huCD163 SRCR 1-5.
Assay [7] has the same target. As to the kind of experiment: ratio of EC50 on huCD163 SRCR 1-5 to EC50 on huCD163 ECD.
Assay [8] addresses human CD163 expressed on human myeloid cells (M2c macrophages, M2 macrophages, in vitro MDSCs) (human) (UniProt Q86VB7). As to the kind of experiment: flow cytometry, APC-labelled anti-huCD163 on M2c macrophages pre-treated with 200 ug/mL goat control polyclonal antibody. Background: In flow cytometry, cells or beads pass a laser one at a time.
Assay [9] concerns the target recombinant murine CD163 (R&D Systems, No. 7435-CD-050) (murine) (UniProt Q2VLH6). As to the kind of experiment: ELISA, plate coated with 5 ug/mL recombinant murine CD163, A450.

Chain of purified recombinant human CD163 protein used for SPR (human) (Q86VB7 46-1050 limits assumed): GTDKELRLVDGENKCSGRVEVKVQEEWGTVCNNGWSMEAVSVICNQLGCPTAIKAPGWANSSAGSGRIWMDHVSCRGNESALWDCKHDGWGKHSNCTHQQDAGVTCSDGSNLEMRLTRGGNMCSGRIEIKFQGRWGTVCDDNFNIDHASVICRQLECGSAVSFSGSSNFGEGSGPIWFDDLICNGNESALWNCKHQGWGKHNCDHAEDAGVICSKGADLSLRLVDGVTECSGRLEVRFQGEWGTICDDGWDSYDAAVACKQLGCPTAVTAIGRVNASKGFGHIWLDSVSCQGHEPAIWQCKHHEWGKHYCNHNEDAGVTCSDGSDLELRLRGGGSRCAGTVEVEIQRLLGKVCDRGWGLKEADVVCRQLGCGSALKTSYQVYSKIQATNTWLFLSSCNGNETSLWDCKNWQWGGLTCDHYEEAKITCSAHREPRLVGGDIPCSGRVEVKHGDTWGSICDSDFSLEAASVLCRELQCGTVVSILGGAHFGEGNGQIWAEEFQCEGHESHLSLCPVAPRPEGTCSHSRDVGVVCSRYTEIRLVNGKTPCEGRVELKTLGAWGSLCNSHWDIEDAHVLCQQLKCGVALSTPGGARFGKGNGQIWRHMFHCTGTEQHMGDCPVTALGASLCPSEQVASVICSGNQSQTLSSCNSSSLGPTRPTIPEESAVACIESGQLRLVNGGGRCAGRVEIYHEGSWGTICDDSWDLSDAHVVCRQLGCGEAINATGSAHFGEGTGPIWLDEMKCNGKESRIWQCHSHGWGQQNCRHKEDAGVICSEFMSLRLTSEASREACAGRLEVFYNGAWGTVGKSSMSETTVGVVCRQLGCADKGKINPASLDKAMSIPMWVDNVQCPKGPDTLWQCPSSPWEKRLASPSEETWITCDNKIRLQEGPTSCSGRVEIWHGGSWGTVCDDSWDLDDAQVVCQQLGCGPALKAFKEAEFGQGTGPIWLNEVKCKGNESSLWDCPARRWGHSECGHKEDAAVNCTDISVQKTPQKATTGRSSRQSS
Chain of human CD163 ECD with a C-terminal 8 histidine tag (HEK293-6E) (human) (Q86VB7 other isoform, or with tags, fused parts or gaps limits assumed): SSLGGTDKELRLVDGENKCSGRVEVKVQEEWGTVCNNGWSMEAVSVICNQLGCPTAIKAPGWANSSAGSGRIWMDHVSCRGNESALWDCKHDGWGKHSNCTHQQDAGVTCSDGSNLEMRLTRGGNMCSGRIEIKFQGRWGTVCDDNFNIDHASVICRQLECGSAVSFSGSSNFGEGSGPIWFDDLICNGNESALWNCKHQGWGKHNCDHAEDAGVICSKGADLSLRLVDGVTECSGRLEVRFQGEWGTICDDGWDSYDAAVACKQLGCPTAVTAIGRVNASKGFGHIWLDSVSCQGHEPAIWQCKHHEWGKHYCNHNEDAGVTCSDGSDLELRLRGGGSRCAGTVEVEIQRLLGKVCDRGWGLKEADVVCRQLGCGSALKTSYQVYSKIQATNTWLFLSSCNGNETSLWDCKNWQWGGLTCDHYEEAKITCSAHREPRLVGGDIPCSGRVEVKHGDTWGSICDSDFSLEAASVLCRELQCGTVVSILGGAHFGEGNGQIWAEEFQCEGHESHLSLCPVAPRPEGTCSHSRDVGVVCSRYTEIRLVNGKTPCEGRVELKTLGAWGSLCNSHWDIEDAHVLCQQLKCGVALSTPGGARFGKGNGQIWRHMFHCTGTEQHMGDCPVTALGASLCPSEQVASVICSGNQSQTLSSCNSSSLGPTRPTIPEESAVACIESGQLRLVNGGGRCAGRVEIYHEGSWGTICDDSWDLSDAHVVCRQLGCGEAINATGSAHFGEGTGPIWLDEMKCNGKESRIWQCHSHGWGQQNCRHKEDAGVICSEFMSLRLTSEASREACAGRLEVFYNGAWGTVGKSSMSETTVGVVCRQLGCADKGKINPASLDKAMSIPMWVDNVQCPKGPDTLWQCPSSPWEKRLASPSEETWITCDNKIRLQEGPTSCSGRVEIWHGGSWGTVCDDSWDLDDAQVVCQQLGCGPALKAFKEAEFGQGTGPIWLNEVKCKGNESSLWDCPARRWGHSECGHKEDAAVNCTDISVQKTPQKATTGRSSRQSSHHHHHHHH
Chain of truncated human CD163 ECD SRCR domain 1-5 fragment with C-terminus histidine tag (HEK293-6E) (human) (Q86VB7 42-578 limits assumed): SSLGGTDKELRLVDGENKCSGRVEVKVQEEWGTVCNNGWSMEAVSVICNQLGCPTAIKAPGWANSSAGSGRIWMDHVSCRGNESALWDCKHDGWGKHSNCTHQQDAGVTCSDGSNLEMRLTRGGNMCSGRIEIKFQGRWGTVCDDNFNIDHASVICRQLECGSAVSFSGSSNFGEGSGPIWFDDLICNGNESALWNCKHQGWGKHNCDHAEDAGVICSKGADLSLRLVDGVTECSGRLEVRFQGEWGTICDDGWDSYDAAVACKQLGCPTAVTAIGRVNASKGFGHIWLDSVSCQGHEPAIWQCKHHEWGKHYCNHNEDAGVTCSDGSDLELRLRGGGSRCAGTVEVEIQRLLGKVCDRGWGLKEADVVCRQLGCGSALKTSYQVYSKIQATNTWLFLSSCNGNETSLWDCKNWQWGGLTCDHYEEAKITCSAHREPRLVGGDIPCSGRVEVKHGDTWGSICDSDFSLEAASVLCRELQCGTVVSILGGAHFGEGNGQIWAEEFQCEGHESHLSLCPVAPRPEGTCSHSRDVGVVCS
Chain of human CD163 expressed on human myeloid cells (M2c macrophages, M2 macrophages, in vitro MDSCs) (human) (Q86VB7 42-1114, tags or fused parts left off): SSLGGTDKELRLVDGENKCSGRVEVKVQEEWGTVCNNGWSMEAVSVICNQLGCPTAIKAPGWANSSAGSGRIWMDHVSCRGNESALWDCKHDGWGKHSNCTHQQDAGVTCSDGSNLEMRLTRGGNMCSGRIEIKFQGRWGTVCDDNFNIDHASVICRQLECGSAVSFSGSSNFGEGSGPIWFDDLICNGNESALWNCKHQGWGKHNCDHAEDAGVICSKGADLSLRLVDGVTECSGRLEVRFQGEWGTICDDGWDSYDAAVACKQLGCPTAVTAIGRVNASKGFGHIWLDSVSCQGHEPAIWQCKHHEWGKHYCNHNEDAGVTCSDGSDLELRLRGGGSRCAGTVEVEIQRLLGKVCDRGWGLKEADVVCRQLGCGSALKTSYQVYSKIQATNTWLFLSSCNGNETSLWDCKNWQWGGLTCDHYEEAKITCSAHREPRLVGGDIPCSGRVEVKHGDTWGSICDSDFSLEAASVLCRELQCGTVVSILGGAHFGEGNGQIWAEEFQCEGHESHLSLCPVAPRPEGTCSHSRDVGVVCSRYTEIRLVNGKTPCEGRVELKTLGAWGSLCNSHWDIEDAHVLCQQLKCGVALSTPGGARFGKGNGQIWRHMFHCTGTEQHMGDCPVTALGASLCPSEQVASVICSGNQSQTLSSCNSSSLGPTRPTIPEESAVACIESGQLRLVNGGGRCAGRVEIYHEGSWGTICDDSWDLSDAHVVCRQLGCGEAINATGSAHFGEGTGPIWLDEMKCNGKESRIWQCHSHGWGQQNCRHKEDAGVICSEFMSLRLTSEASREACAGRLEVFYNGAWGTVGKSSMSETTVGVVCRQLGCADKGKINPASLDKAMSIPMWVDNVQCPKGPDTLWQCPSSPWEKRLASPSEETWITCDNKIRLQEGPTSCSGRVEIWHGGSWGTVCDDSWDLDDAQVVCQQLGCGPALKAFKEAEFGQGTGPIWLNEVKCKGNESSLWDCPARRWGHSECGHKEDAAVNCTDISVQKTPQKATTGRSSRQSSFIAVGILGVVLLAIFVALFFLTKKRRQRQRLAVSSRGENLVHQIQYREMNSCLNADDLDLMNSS
Chain of His-tagged recombinant human CD163 (R&D Systems, No. 1607-CD-050) (human) (Q86VB7 46-1050 limits assumed): as the sequence (Q86VB7 46-1050 limits assumed) above

With anti-CD163 clone GHI/61 (antibody), in [1], the pKd is 7.92, the koff was 0.000178 s⁻¹ and the kon worked out at 14800 M⁻¹ s⁻¹. In assay [2], the pKd is 7.20, the koff came out at 0.000467 s⁻¹ and the kon turned out to be 7320 M⁻¹ s⁻¹.

Regarding “control anti-huCD163 antibody, murine IgG1 (R&D Systems, #MAB1607)”, the EC50 (read off the curve) worked out at 0.01 nM in assay [3] and 3 nM in assay [4].

Consider EDHu-1 (antibody), for which the pEC50 was 10.28 in assay [5] and 10.30 in [6]. The Ratio SRCR 1-5/ECD (EC50) in assay [7] came out at 0.96.

Take “APC-labeled anti-huCD163 antibody (R&D Systems, #FAB1607A)”: the EC50 (read off the curve) in assay [8] was found to be 10 nM.

Take 215927 (antibody): the pEC50 is 10.77 in [5] and 10.70 in assay [6]. In assay [7], the Ratio SRCR 1-5/ECD (EC50) was found to be 1.17.

Take RM3/1 (antibody): in assay [5], the pEC50 is 10.21.

With “commercially available rat anti-muCD163 antibody (Thermo Fisher Scientific #14-1631-82)”, the EC50 (read off the curve) in assay [9] was 0.02 nM.

The pKd is the negative decadic logarithm of the Kd, by convention in mol/L. A word on the koff: it is a measure of how fast the partners let go of each other. A word on the kon: it is the second-order rate constant of association. In general, EC50 (read off the curve) refers to the concentration that produces a half-maximal response. Usually pEC50 stands for the negative decadic logarithm of the EC50, by convention in mol/L.
